Target: the molecule itself
Assay: crystal structure

B1: Bla g 5 (enzyme, Blattella germanica, UniProt O18598 1-204, looked up)
chain: MAPSYKLTYCPVKALGEPIRFLLSYGEKDFEDYRFQEGDWPNLKPSMPFGKTPVLEIDGKQTHQSVAISRYLGKQFGLSGKDDWENLEIDMIVDTISDFRAAIANYHYDADENSKQKKWDPLKKETIPYYTKKFDEVVKANGGYLAAGKLTWADFYFVAILDYLNHMAKEDLVANQPNLKALREKVLGLPAIKAWVAKRPPTDL
stoichiometry N: 2

B2: Asc s 13 (enzyme, Ascaris suum, UniProt P46436 1-206, looked up)
chain: MPQYKLTYFDIRGLGEGARLIFHQAGVKFEDNRLKREDWPALKPKTPFGQLPLLEVDGEVLAQSAAIYRYLGRQFGLAGKTPMEEAQVDSIFDQFKDFMAELRPCFRVLAGFEEGDKEKVLKEVAVPARDKHLPLLEKFLAKSGSEYMVGKSVTWADLVITDSLASWESLIPDFLSGHLQLKKYIEHVRELPNIKKWIAERPKTPY
stoichiometry N: 2
